Assay results reported in US8034904B2, “Anti-IGF-I receptor antibody” (Immunogen Inc., priority 2002, dated 2011).

Columns and labels:
[1] = molecular target: T1, IGF-I receptor on MCF-7 cells (Homo sapiens, UniProt P08069); assay: Inhibition of binding of biotinylated IGF-I to MCF-7 cells; format: cell-based; conditions: 5 μg/mL antibody, 2 h; 50 ng/mL biotinylated IGF-I, 20 min, 37° C.
T1 construct: human breast cancer MCF-7 cells, which expressed IGF-I receptor; endogenous in cells; host or cells: MCF-7 human breast cancer cells
Experimental: The binding of IGF-I to human breast cancer MCF-7 cells was inhibited by EM164 antibody (FIG. 3). […] The cells were then washed twice with serum-free medium to remove unbound biotin-IGF-I, and were then lysed in 50 mM HEPES, pH 7.4, containing 1% NP-40 and protease inhibitors. An Immulon-2HB ELISA plate was coated with a mouse monoclonal anti-IGF-I receptor beta chain antibody and was used to capture the IGF-I receptor and bound biotin-IGF-I from the lysate. […] The wells were washed, incubated with streptavidin-horseradish peroxidase conjugate, washed again, and then detected using ABTS/H2O2 substrate.

NCI-H838 (lung) cells = assay: Growth and survival of NCI-H838 cells (MTT assay); format: cell-based, human
Experimental: (§1) Several human tumor cell lines were tested in serum-free conditions for their growth and survival response to IGF-I. These cell lines were treated with EM164 antibody in the presence of IGF-I, IGF-II, or serum, and their growth and survival responses were measured using an MTT assay after 2-4 days. Approximately 1500 cells were plated in a 96-well plate in regular medium with serum, which was replaced with serum-free medium the following day (either serum-free RPMI medium supplemented with transferrin and BSA, or phenol-red free medium as specified by Dufourny, B. et al., 1997, J. Biol. Chem., 272, 31163-31171). After one day of growth in serum-free medium, the cells were incubated with about 75 μL of 10 μg/mL antibody for 30 min.-3 h, followed by the addition of 25 μL of IGF-I (or IGF-II or serum) solution to obtain a final concentration of 10 ng/mL IGF-I, or 20 ng/mL IGF-II, or 0.04-10% serum. In some experiments, the cells were stimulated first with IGF-I for 15 min before the addition of EM164 antibody, or both IGF-I and EM164 antibody were added together. The cells were then allowed to grow for another 2-3 days. A solution of MTT (3-(4,5)-dimethylthiazol-2-yl)-2,5-diphenyltetrazolium bromide; 25 μL of a 5 mg/mL solution in PBS) was then added and the cells were returned to the incubator for 2-3 h. The medium was then removed and replaced by 100 μL DMSO, mixed, and the absorbance of the plate was measured at 545 nm.

A 431 (epidermoid) cells = assay: Growth and survival of A 431 cells (MTT assay); format: cell-based, human
Experimental: as §1

[2] = test system: SK-N-SH (neuroblastoma) cells; assay: Growth and survival of SK-N-SH cells (MTT assay); format: cell-based, human
Experimental: as §1

[3] = 5-10 μg/mL EM164, 10 ng/mL IGF-I

B1: EM164: murine anti-IGF-I receptor monoclonal antibody, IgG1 with kappa light chain, hybridoma ATCC PTA-4457; heavy SEQ ID NO:7, light SEQ ID NO:8 (antibody)
heavy: QVQLQQSGAELVKPGASVKLSCKASGYTFTSYWMHWVKQRPGQGLEWIGEINPSNGRTNYNEKFKRKATLTVDKSSSTAYMQLSSLTSEDSAVYYFARGRPDYYGSSKWYFDVWGAGTTVTVSS
light: DVLMTQTPLSLPVSLGDQASISCRSSQSIVHSNVNTYLEWYLQKPGQSPKLLIYKVSNRFSGVPDRFSGSGSGTDFTLRISRVEAEDLGIYYCFQGSHVPPTFGGGTKLEIKR
modifications: antibody heavy chain; antibody light chain
inhibition of IGF-I binding to MCF-7 cells [1]: essentially quantitative
% Inhibition by EM164 antibody of Growth/survival of cells in 1.25-10% serum (NCI-H838 (lung) cells; NCI-H838 (lung), 5-10 μg/mL EM164): 85-90%
Inhibition by EM164 antibody of IGF-I-stimulated growth in serum-free medium (NCI-H838 (lung) cells; NCI-H838 (lung), 5-10 μg/mL EM164, 10 ng/mL IGF-I): 100%
inhibition of serum-stimulated growth (NCI-H838 (lung) cells; NCI-H838 cells): greater than 80%
IGF-1- and serum-stimulated growth and survival of NCI-H838 (NCI-H838 (lung) cells; compared to a control anti-B4 antibody, FIG. 9): strongly inhibited
Inhibition by EM164 antibody of IGF-I-stimulated growth in serum-free medium (A 431 (epidermoid) cells; [3]): 85%
% Inhibition by EM164 antibody of Growth/survival of cells in 1.25-10% serum (A 431 (epidermoid) cells; 5-10 μg/mL EM164, MTT or colony formation assay): Yes
% Inhibition by EM164 antibody of Growth/survival of cells in 1.25-10% serum ([2]; 5-10 μg/mL EM164): 30-50%
Inhibition by EM164 antibody of IGF-I-stimulated growth in serum-free medium [2, 3]: 85%
